Target: Flag-tagged METTL3, Q86U44
Sequence (Q86U44 whole entry): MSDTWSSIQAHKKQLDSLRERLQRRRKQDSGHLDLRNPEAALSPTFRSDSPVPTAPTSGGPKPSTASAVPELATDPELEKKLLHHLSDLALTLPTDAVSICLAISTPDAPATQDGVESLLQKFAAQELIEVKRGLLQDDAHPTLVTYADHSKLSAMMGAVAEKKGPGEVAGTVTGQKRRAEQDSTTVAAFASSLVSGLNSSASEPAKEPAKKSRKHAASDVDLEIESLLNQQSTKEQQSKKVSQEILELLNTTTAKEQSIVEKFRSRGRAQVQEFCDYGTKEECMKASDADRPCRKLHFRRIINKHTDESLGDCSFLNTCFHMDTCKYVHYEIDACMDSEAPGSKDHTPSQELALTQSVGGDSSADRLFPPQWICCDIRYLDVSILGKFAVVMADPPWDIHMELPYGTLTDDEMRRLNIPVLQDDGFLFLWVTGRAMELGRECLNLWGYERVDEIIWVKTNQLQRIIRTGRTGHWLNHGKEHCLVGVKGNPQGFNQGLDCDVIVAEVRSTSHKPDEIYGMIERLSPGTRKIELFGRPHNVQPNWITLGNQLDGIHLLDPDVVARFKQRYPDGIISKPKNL

B1: HA-tagged G9a (protein)
chain: MAAAAGAAAAAAAEGEAPAEMGALLLEKETRGATERVHGSLGDTPRSEETLPKATPDSLEPAGPSSPASVTVTVGDEGADTPVGATPLIGDESENLEGDGDLRGGRILLGHATKSFPSSPSKGGSCPSRAKMSMTGAGKSPPSVQSLAMRLLSMPGAQGAAAAGSEPPPATTSPEGQPKVHRARKTMSKPGNGQPPVPEKRPPEIQHFRMSDDVHSLGKVTSDLAKRRKLNSGGGLSEELGSARRSGEVTLTKGDPGSLEEWETVVGDDFSLYYDSYSVDERVDSDSKSEVEALTEQLSEEEEEEEEEEEEEEEEEEEEEEEEDEESGNQSDRSGSSGRRKAKKKWRKDSPWVKPSRKRRKREPPRAKEPRGVNGVGSSGPSEYMEVPLGSLELPSEGTLSPNHAGVSNDTSSLETERGFEELPLCSCRMEAPKIDRISERAGHKCMATESVDGELSGCNAAILKRETMRPSSRVALMVLCETHRARMVKHHCCPGCGYFCTAGTFLECHPDFRVAHRFHKACVSQLNGMVFCPHCGEDASEAQEVTIPRGDGVTPPAGTAAPAPPPLSQDVPGRADTSQPSARMRGHGEPRRPPCDPLADTIDSSGPSLTLPNGGCLSAVGLPLGPGREALEKALVIQESERRKKLRFHPRQLYLSVKQGELQKVILMLLDNLDPNFQSDQQSKRTPLHAAAQKGSVEICHVLLQAGANINAVDKQQRTPLMEAVVNNHLEVARYMVQRGGCVYSKEEDGSTCLHHAAKIGNLEMVSLLLSTGQVDVNAQDSGGWTPIIWAAEHKHIEVIRMLLTRGADVTLTDNEENICLHWASFTGSAAIAEVLLNARCDLHAVNYHGDTPLHIAARESYHDCVLLFLSRGANPELRNKEGDTAWDLTPERSDVWFALQLNRKLRLGVGNRAIRTEKIICRDVARGYENVPIPCVNGVDGEPCPEDYKYISENCETSTMNIDRNITHLQHCTCVDDCSSSNCLCGQLSIRCWYDKDGRLLQEFNKIEPPLIFECNQACSCWRNCKNRVVQSGIKVRLQLYRTAKMGWGVRALQTIPQGTFICEYVGELISDAEADVREDDSYLFDLDNKDGEVYCIDARYYGNISRFINHLCDPNIIPVRVFMLHQDLRFPRIAFFSSRDIRTGEELGFDYGDRFWDIKSKYFTCQCGSEKCKHSAEAIALEQSRLARLDPHPELLPELGSLPPVNT
LC-MS/MS of tryptic digests of Flag-METTL3: mono- or di-methyl-lysine (Kme) sites: four mono- or di-methyl-lysine (Kme) sites in the C-terminus of METTL3 | lysine methylation of immunoprecipitated Flag-METTL3, immunoblotting with an anti-mono- or di-methylysine antibody: METTL3 was methylated

Source: patent US20230414619
